± gives the uncertainty stated by the source.
Assay: self-splicing fitness, log relative to wild type (ln ratio); higher = more splicing; Tetrahymena group I intron in knt gene, E. coli kanamycin selection, DiMSum; sequences stand for … in CUCUCU…GGAGGGAAAAGUUAUCAGGCAUGCACCUGGUAGCUAGUCUUUAAACCAAUAGAUUGCAUCGGUUUAAAAGGCAAGACCGUCAAAUUGCGGGAAAGGGGUCAACAGCCGUUCAGUACCAAGUCUCAGGGGAAACUUUGAGAUGGCCUUGCAAAGGGUAUGGUAAUAAGCUGACGGACAUGGUCCUAACCACGCAGCCAAGUCCUAAGUCAACAGAUCUUCUGUUGAUAUGGAUGCAGUUCACAGACUAAAUGUCGGUCGGGGAAGAUGUAUUCUUCUCAUAAGAUAUAGUCGGACCUCUCCUUAAUGGGAGCUAGCGGAUGAAGUGAUGCAACACUGGAGCCGCUGGGAACUAAUUUGUAUGCGAAAGUAUAUUGAUUAGUUUUGGAGUACUCGUGGUCG
In short: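 Fitness was computed with DiMSum as the error-weighted combination of replicate fold changes, kanamycin versus none, each normalised to wild type. The library randomised all eight intron nucleotides of the P1ex region, with the intron placed in the knt kanamycin-resistance gene on pET-22b(+) in E. coli BL21(DE3). Six replicate transformations were grown overnight at 37°C or 30°C on LB agar with or without 25 μg/mL kanamycin, plus 100 μg/mL carbenicillin, 50 μM IPTG and 0.2% rhamnose. Pooled colonies were amplicon-sequenced on an Illumina HiSeq 2500.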

| Sequence | self-splicing fitness (ln) (30 °C) | self-splicing fitness (ln) (37 °C) |
| --- | --- | --- |
| ACCCAGCAAUAUUACGGCAU | -0.483 ± 0.042 | 0.0474 ± 0.058 |
| ACCCAGCAAUAUUACGGGGA | -1.02 ± 0.053 | -0.524 ± 0.065 |
| ACCCAGCAAUAUUACGGUAU | -0.563 ± 0.047 | -0.154 ± 0.068 |
| ACCCAGCAAUAUUACGGUCC | -1.61 ± 0.085 | -1.4 ± 0.12 |
| ACCCAGCAAUAUUACGGUCG | -3.85 ± 0.14 | -1.75 ± 0.095 |
| ACCCAGCAAUAUUACGGUCU | -1.12 ± 0.038 | -0.171 ± 0.052 |
| ACCCAGCAAUAUUACGGUUA | -0.324 ± 0.059 | -0.361 ± 0.06 |
| ACCCAGCAAUAUUACGUGCG | -3.12 ± 0.13 | -1.85 ± 0.098 |
| ACCCAGCAAUAUUACGUGUA | -1.38 ± 0.06 | -0.689 ± 0.064 |
| ACCCAGCAAUAUUACGUUAU | -1.91 ± 0.064 | -1.04 ± 0.081 |
| ACCCAGCAAUAUUACGUUUU | -1.41 ± 0.048 | -0.336 ± 0.066 |
| ACCGAGCAAUAUUACGAAAC |  | -2.95 ± 0.37 |
| ACCGAGCAAUAUUACGACAA | -2.37 ± 0.22 | -2.4 ± 0.26 |
| ACCGAGCAAUAUUACGACGC | -0.285 ± 0.089 | -0.16 ± 0.11 |
| ACCGAGCAAUAUUACGAGCA | -2.63 ± 0.13 | -1.99 ± 0.13 |
| ACCGAGCAAUAUUACGAUCC | -2.86 ± 0.34 | -1.94 ± 0.29 |
| ACCGAGCAAUAUUACGAUCU | -1.66 ± 0.14 | -0.405 ± 0.15 |
| ACCGAGCAAUAUUACGCAGG | -4.2 ± 0.47 | -2.65 ± 0.41 |
| ACCGAGCAAUAUUACGCGGG | -3.85 ± 0.18 | -2.89 ± 0.19 |
| ACCGAGCAAUAUUACGCUAA | -3.28 ± 0.32 | -2.05 ± 0.28 |
| ACCGAGCAAUAUUACGGAAA | -2.92 ± 0.12 | -2.5 ± 0.12 |
| ACCGAGCAAUAUUACGGAUU | -3.51 ± 0.16 | -1.94 ± 0.16 |
| ACCGAGCAAUAUUACGGCAG | -4.4 ± 0.39 |  |
| ACCGAGCAAUAUUACGGGCC | -3.39 ± 0.17 | -2.09 ± 0.15 |

| Sequence | self-splicing fitness (ln) (30 °C) | self-splicing fitness (ln) (37 °C) |
| --- | --- | --- |
| ACCGAGCAAUAUUACGGGGC | -3.64 ± 0.2 | -2.47 ± 0.2 |
| ACCGAGCAAUAUUACGGGUC | -4.23 ± 0.14 | -3.06 ± 0.14 |
| ACCGAGCAAUAUUACGGGUU | -2.85 ± 0.12 | -2.54 ± 0.18 |
| ACCGAGCAAUAUUACGGUAG | -3.75 ± 0.23 | -2.73 ± 0.24 |
| ACCGAGCAAUAUUACGUAAA | -4.22 ± 0.29 | -1.66 ± 0.19 |
| ACCGAGCAAUAUUACGUAAG | -2.67 ± 0.13 | -2.13 ± 0.16 |
| ACCGAGCAAUAUUACGUAUG | -3.56 ± 0.15 | -2.28 ± 0.15 |
| ACCGAGCAAUAUUACGUCUG | -2.37 ± 0.095 | -2.28 ± 0.14 |
| ACCGAGCAAUAUUACGUGUA | -2.2 ± 0.13 | -1.49 ± 0.096 |
| ACCGAGCAAUAUUACGUUCG | -3.19 ± 0.48 | -1.76 ± 0.23 |
| ACCUAGCAAUAUUACGAACA | -2.24 ± 0.29 | 0.383 ± 0.2 |
| ACCUAGCAAUAUUACGAACC | -1.67 ± 0.16 | -1.07 ± 0.19 |
| ACCUAGCAAUAUUACGAAUG | -3.04 ± 0.15 | -2.3 ± 0.13 |
| ACCUAGCAAUAUUACGACAU | -0.784 ± 0.011 | -0.119 ± 0.032 |
| ACCUAGCAAUAUUACGACUA | -2.72 ± 0.21 | -1.78 ± 0.23 |
| ACCUAGCAAUAUUACGAGAU | -2.54 ± 0.091 | -1.3 ± 0.098 |
| ACCUAGCAAUAUUACGAUAA | -2.61 ± 0.27 | -2.1 ± 0.23 |
| ACCUAGCAAUAUUACGAUGG | -3.01 ± 0.17 | -0.981 ± 0.18 |
| ACCUAGCAAUAUUACGAUUG | -3.2 ± 0.21 | -2.28 ± 0.25 |
| ACCUAGCAAUAUUACGCAAG | -2.73 ± 0.15 | -2.2 ± 0.18 |
| ACCUAGCAAUAUUACGCCUA | -2.17 ± 0.3 | -2.38 ± 0.3 |
| ACCUAGCAAUAUUACGCGCU | 0.00461 ± 0.076 | -0.0669 ± 0.096 |
| ACCUAGCAAUAUUACGCUGG | -4.07 ± 0.35 | -2.53 ± 0.22 |
| ACCUAGCAAUAUUACGGCGG | -1.36 ± 0.12 | -1.6 ± 0.14 |

| Sequence | self-splicing fitness (ln) (30 °C) | self-splicing fitness (ln) (37 °C) |
| --- | --- | --- |
| ACCUAGCAAUAUUACGGGAA | -1.62 ± 0.11 | -0.345 ± 0.11 |
| ACCUAGCAAUAUUACGGGCU | -1.51 ± 0.076 | -1.35 ± 0.094 |
| ACCUAGCAAUAUUACGGGGA | -1.11 ± 0.08 | -0.794 ± 0.096 |
| ACCUAGCAAUAUUACGGGGG | -3.84 ± 0.2 | -1.59 ± 0.17 |
| ACCUAGCAAUAUUACGUCAG | -3.93 ± 0.19 | -1.85 ± 0.1 |
| ACCUAGCAAUAUUACGUCGG | -1.07 ± 0.078 | -1.11 ± 0.11 |
| ACCUAGCAAUAUUACGUGCC | -1.63 ± 0.12 | -0.237 ± 0.14 |
| ACCUAGCAAUAUUACGUUUA | -3.18 ± 0.17 | -2.68 ± 0.17 |
| ACCUAGCAAUAUUACGUUUU | -2.61 ± 0.091 | -1.44 ± 0.1 |
| ACGAAGCAAUAUUACGAAAC | -2.87 ± 0.23 |  |
| ACGAAGCAAUAUUACGAAGG | -2.21 ± 0.17 | -1.4 ± 0.15 |
| ACGAAGCAAUAUUACGACGU | -2.78 ± 0.17 | -1.88 ± 0.19 |
| ACGAAGCAAUAUUACGCAAA | -2.64 ± 0.15 | -0.916 ± 0.13 |
| ACGAAGCAAUAUUACGCGCU | -1.01 ± 0.09 | 0.163 ± 0.12 |
| ACGAAGCAAUAUUACGCUAC | -2.09 ± 0.14 | -2.81 ± 0.15 |
| ACGAAGCAAUAUUACGCUAU | -0.928 ± 0.06 | -1.48 ± 0.078 |
| ACGAAGCAAUAUUACGGACG | -1.55 ± 0.13 | -0.00573 ± 0.18 |
| ACGAAGCAAUAUUACGGAGU | -3.82 ± 0.24 | -3.07 ± 0.29 |
| ACGAAGCAAUAUUACGGCCU | 0.00118 ± 0.097 | 0.0498 ± 0.13 |
| ACGAAGCAAUAUUACGGGCU | -0.943 ± 0.1 | -1.67 ± 0.16 |
| ACGAAGCAAUAUUACGGGUU | -3.63 ± 0.15 | -2.58 ± 0.14 |
| ACGAAGCAAUAUUACGGUCU | -0.57 ± 0.073 | -0.225 ± 0.097 |
| ACGAAGCAAUAUUACGGUGU | -2.71 ± 0.11 | -1.59 ± 0.095 |
| ACGAAGCAAUAUUACGGUUA | -1.58 ± 0.095 | -0.445 ± 0.079 |

| Sequence | self-splicing fitness (ln) (30 °C) | self-splicing fitness (ln) (37 °C) |
| --- | --- | --- |
| ACGAAGCAAUAUUACGGUUC | -4.09 ± 0.23 | -0.86 ± 0.15 |
| ACGAAGCAAUAUUACGUAGC | -3.19 ± 0.17 | -1.16 ± 0.14 |
| ACGAAGCAAUAUUACGUAGG | -2.12 ± 0.099 | -1.43 ± 0.15 |
| ACGAAGCAAUAUUACGUAUG | -1.94 ± 0.14 | -2.7 ± 0.23 |
| ACGAAGCAAUAUUACGUCCC | -1.28 ± 0.13 | -1.07 ± 0.16 |
| ACGAAGCAAUAUUACGUCUA | -1.66 ± 0.071 | -1.03 ± 0.061 |
| ACGAAGCAAUAUUACGUGCA | -0.772 ± 0.066 | 0.325 ± 0.084 |
| ACGAAGCAAUAUUACGUGGG | -2.76 ± 0.16 | -2.84 ± 0.17 |
| ACGAAGCAAUAUUACGUUAG | -3.22 ± 0.12 | -2.44 ± 0.16 |
| ACGAAGCAAUAUUACGUUUC | -2.31 ± 0.11 | -2.18 ± 0.17 |
| ACGCAGCAAUAUUACGAAAC | -3.07 ± 0.4 | -1.58 ± 0.21 |
| ACGCAGCAAUAUUACGAAAG | -3.33 ± 0.21 | -2 ± 0.19 |
| ACGCAGCAAUAUUACGAACA | -1.75 ± 0.081 | -1.36 ± 0.086 |
| ACGCAGCAAUAUUACGACCA | -1.49 ± 0.12 | -0.691 ± 0.15 |
| ACGCAGCAAUAUUACGAGAA | -1.64 ± 0.26 | -2.83 ± 0.25 |
| ACGCAGCAAUAUUACGAGCC | -2.97 ± 0.2 | -1.84 ± 0.17 |
| ACGCAGCAAUAUUACGAGGG | -3.71 ± 0.18 | -2.77 ± 0.21 |
| ACGCAGCAAUAUUACGAUUG | -2.96 ± 0.18 | -1.82 ± 0.17 |
| ACGCAGCAAUAUUACGCCCG | -0.491 ± 0.13 | -0.64 ± 0.19 |
| ACGCAGCAAUAUUACGCCUC | -2.83 ± 0.17 | -1.22 ± 0.19 |
| ACGCAGCAAUAUUACGCGAA | -2.4 ± 0.15 | -1.2 ± 0.13 |
| ACGCAGCAAUAUUACGCUAC | -1.93 ± 0.25 | -2.59 ± 0.45 |
| ACGCAGCAAUAUUACGGGCU | -2.46 ± 0.11 | -1.36 ± 0.12 |
| ACGCAGCAAUAUUACGGGUG | -1.56 ± 0.068 | -0.519 ± 0.076 |

Source: the supplement of paper PMC7877785
